Results as given in publication PMC11331971 (Nature, 2023).
Residue numbers refer to the chain shown, from its start. In names and notes the source's numbering stands.

B1: HKU1B receptor binding domain (residues 323-607) (domain or fragment)
chain: NLPDCDIDNWLNNVSVPSPLNWERRIFSNCNFNLSTLLRLVHVDSFSCNNLDKSKIFGSCFNSITVDKFAIPNRRRDDLQLGSSGFLQSSNYKIDISSSSCQLYYSLPLVNVTINNFNPSSWNRRYGFGSFNLSSYDVVYSDHCFSVNSDFCPCADPSVVNSCAKSKPPSAICPAGTKYRHCDLDTTLYVKNWCRCSCLPDPISTYSPNTCPQKKVVVGIGEHCPGLGINEEKCGTQLNHSSCFCSPDAFLGWSFDSCISNNRCNIFSNFIFNGINSGTTCSNDL
modifications: biotinylated with the BirA biotin-protein ligase kit for the BLI experiment with nanobodies only
B2: HKU1B receptor binding domain with the R517A mutation (domain or fragment)
chain: B1 chain with R195A
B3: HKU1A receptor binding domain (residues 323-609) (domain or fragment)
chain: DLPDCDIDKWLNNFNVPSPLNWERKIFSNCNFNLSTLLRLVHTDSFSCNNFDESKIYGSCFKSIVLDKFAIPNSRRSDLQLGSSGFLQSSNYKIDTTSSSCQLYYSLPAINVTINNYNPSSWNRRYGFNNFNLSSHSVVYSRYCFSVNNTFCPCAKPSFASSCKSHKPPSASCPIGTNYRSCESTTVLDHTDWCRCSCLPDPITAYDPRSCSQKKSLVGVGEHCAGFGVDEEKCGVLDGSYNVSCLCSTDAFLGWSYDTCVSNNRCNIFSNFILNGINSGTTCSNDL
B4: TMPRSS2 (transmembrane-serine protease 2), wild type, on transfected 293T cells (receptor)
chain: MALNSGSPPAIGPYYENHGYQPENPYPAQPTVVPTVYEVHPAQYYPSPVPQYAPRVLTQASNPVVCTQPKSPSGTVCTSKTKKALCITLTLGTFLVGAALAAGLLWKFMGSKCSNSGIECDSSGTCINPSNWCDGVSHCPGGEDENRCVRLYGPNFILQVYSSQRKSWHPVCQDDWNENYGRAACRDMGYKNNFYSSQGIVDDSGSTSFMKLNTSAGNVDIYKKLYHSDACSSKAVVSLRCIACGVNLNSSRQSRIVGGESALPGAWPWQVSLHVQNVHVCGGSIITPEWIVTAAHCVEKPLNNPWHWTAFAGILRQSFMFYGAGYQVEKVISHPNYDSKTKNNDIALMKLQKPLTFNDLVKPVCLPNPGMMLQPEQLCWISGWGATEEKGKTSEVLNAAKVLLIETQRCNSRYVYDNLITPAMICAGFLQGNVDSCQGDSGGPLVTSKNNIWWLIGDTSWGSGCAKAYRPGVYGNVMVFTDWIYRQMRADG
B5: anti-TMPRSS2 nanobody VHH-C11 (VHH)
VHH: QVQLVESGGGLVQPGGSLRLSCAASGFTLDYYDIYWFRQAPGKEREGVSSITTSGGRTNYADSVKGRFTISRDNAKNTVYLQMNSLKPEDTAVYYCAAKVGGRRNWIAPLNGYENALWGKGTLVTVSS
B6: anti-TMPRSS2 nanobody VHH-F05 (VHH)
VHH: EVQLVESGGGLVQPGGSLRLSCAASGFTLDYYAIGWFRQAPGKEREGVSCISSSGDSIKYVDSVKGRFTISRDNAKNTVYLQMNSLKPEDTAVYQCAADALGSGCLTGNYDYWGQGTRVTVSS
B7: anti-TMPRSS2 nanobody VHH-A01 (VHH)
VHH: QVQLVESGGGLVQPGGSLRLSCVVSGFSLDYYAIGWFRQAPGKEREGVSCIGSSGDKTNYADSVKGRFTISRDNAKNTVYLQMNSLKPEDTAVYYCAAESALYSDCTEEQNPMLYDYWGQGTQVTVSS
B8: anti-TMPRSS2 nanobody VHH-A07 (VHH)
VHH: QVQLVESGGGLVQPGGSLRLSCTSSGSPLEHYDIIWFRQAPGREREGVSSITTSGGHTNYADSVKDRFTISRDNAKNVVYLQMNSLKPEDTAVYYCAGRVGGRRNWIVPLDGYDNAYWGQGTQVTVSS
B9: anti-TMPRSS2 nanobody VHH-D01 (VHH)
VHH: EVQLVESGGGLVQPGGPLRLSCASSGSTLEHYDIGWFRQVPGGLREGVSSITASGGRTNYADSVKGRFTISRDNGKNAVYLQMNSLKPEDTAVYYCAGKIGGRRNWVAPLDGFENAYWGQGTQVTVSS

What follows are binders tested against T1, S441A TMPRSS2 ectodomain, soluble (human, UniProt O15393 106-492, S441A) (assay: BLI).
B1 showed a Kd of 131 nM.

Biological target: T1, S441A TMPRSS2 ectodomain, soluble
Assay: BLI
Remark: another data set of the same source
Work on B1 yielded a Kd of 137 ± 20.8 nM. B2 gave a Kd of 376 ± 96.4 nM. B3 was tested, and the Kd was 334 ± 66.2 nM.

These binders were tested against dimeric anti-TMPRSS2 VHH-A01-Fc (alpaca (Lama pacos)) (assay: flow cytometry on cells).
B4: binds.

The binders below were run against S441A TMPRSS2 ectodomain, soluble (human, UniProt O15393, S441A) (assay: BLI).
S441A TMPRSS2 ectodomain, soluble (human, UniProt O15393, S441A), sequence (O15393 106-492 S441A): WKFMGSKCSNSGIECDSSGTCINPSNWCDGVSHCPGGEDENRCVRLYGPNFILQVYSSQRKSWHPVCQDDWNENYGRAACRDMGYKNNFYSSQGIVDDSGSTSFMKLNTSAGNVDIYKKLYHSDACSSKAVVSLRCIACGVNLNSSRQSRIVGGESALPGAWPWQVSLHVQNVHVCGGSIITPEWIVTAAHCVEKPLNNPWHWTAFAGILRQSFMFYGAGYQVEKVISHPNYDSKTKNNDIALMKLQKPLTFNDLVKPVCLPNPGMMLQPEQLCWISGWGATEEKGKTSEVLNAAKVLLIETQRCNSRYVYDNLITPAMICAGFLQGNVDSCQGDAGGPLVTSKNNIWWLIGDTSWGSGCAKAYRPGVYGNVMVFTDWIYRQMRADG
With B5 the Kd was 32.5 nM and the koff was 0.00023 s⁻¹. Binder B6 has a Kd of 2.6 nM and a koff of 0.00019 s⁻¹. B7 was tested, and the Kd was 0.78 nM and the koff was 5.1e-05 s⁻¹. In the case of B8, the Kd is reported as 13.3 nM and the koff is reported as 0.0011 s⁻¹. Binder B9 has a Kd of 6 nM and a koff of 0.00048 s⁻¹.
